Data taken from paper PMC6546432.

Experiments:
[1] = molecular target: dog K12del HA-tagged retinol-binding protein (^HARBP) (dog); assay: non-reducing SDS-PAGE and western blot; conditioned media of transfected HeLa cells; no beta-mercaptoethanol; anti-HA, LI-COR
[2] = molecular target: dog K12del retinol-binding protein (RBP) in serum (dog (endogenous in serum)); assay: non-reducing SDS-PAGE and western blot; dog serum; non-reducing conditions; gels treated with beta-mercaptoethanol before transfer

**Q.** “dog K12del HA-tagged retinol-binding protein (^HARBP) (natural protein)” was tested. Which dimer fraction [1] did it give?
**A.** 0.89

**Q.** Which stoichiometry N [2] does the source give for “dog K12del retinol-binding protein (RBP) in serum (natural protein)” here?
**A.** 2
